Experimental data from US20180250358A1, “GHRH AGONISTS FOR THE TREATMENT OF ISCHEMIC DISORDERS” (published 2018).
Non-standard residues stand in square brackets, D forms with d. No end group written: not given here. *: point of attachment. Desaminotyrosyl = O=C(CCc1ccc(O)cc1)*; NMeY = CN[C@@H](Cc1ccc(O)cc1)C(=O)O; Agmatine = N=C(N)NCCCCN*; Nle = CCCC[C@H](N)C(=O)O; Orn = NCCC[C@H](N)C(=O)O; Abu = CC[C@H](N)C(=O)O

T1: GHRH receptor of human pituitary membranes (human, UniProt Q02643)
T1 sequence: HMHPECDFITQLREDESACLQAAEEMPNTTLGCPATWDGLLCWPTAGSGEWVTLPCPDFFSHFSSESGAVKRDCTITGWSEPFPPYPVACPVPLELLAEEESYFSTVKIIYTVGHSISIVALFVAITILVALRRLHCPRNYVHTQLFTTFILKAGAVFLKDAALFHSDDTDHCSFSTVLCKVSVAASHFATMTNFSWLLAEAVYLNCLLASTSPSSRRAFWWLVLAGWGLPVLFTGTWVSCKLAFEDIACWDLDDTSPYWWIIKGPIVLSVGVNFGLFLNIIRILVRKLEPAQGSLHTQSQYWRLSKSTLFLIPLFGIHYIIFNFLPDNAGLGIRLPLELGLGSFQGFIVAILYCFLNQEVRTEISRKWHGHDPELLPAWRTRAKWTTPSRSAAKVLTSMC

T2: GHRH receptor of rat pituitary cells (rat, UniProt Q02644)
T2 sequence: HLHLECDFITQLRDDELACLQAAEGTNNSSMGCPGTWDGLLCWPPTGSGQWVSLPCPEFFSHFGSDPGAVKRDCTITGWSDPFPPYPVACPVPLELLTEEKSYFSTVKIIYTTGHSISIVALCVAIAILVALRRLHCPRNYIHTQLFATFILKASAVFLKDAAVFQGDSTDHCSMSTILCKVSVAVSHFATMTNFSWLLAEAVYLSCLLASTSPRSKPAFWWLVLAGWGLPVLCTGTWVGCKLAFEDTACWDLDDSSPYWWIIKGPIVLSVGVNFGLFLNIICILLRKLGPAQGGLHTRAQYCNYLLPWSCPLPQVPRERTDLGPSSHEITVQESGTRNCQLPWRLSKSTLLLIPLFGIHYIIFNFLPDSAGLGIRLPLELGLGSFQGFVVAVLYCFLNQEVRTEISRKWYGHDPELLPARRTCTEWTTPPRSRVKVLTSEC


What was measured:
[1] = target: GHRH receptor of human pituitary membranes (human) (UniProt Q02643); experiment: competition vs 125I-[His1,Nle27]hGHRH(1-32)NH2, human pituitary membranes
[2] = target: T1, GHRH receptor of human pituitary …; experiment: competition vs 125I-JV-1-42, human pituitary membranes
Description: The final binding affinities were expressed as IC₅₀ values and were calculated by using the LIGAND PC computerized curve-fitting program of Munson and Rodbard as modified by McPherson.

[3] = target: T1, GHRH receptor of human pituitary …; experiment: competition vs 125I-[His1,Nle27]hGHRH(1-32)NH2, human pituitary membranes
[4] = target: T2, GHRH receptor of rat pituitary cells; experiment: cell-based or functional assay
[5] = target: T1, GHRH receptor of human pituitary …; experiment: competition vs 125I-JV-1-42, human pituitary membranes; remark: listed apart in the source
Description: (§1) Normal human pituitaries were purchased from the National Hormone and Peptide Program (A.F. Parlow, Los Angeles, County Harbor-UCLA Medical Center, Torrance, Calif.).

[6] = target: T1, GHRH receptor of human pituitary …; experiment: competition vs 125I-[His1,Nle27]hGHRH(1-32)NH2, human pituitary membranes; remark: listed apart in the source
Description: Normal human pituitary was purchased from the National Hormone and Peptide Program (UCLA Medical Center, Torrance, Calif.).

[7] = target: T1, GHRH receptor of human pituitary …; experiment: as above; remark: listed apart in the source
Description: as §1

Row | Molecule | relative affinity (binding potency) vs GHRH (vs GHRH(1-29)=1) [1] | IC50 [2] [nM] | relative affinity (binding potency) vs GHRH [2] | relative affinity (binding potency) vs JI-38 [2] [vs JI-38=1] | fold increase in GHRH receptor binding affinity vs JI-38 [3] [fold vs JI-38] | GH-releasing potency in vitro relative to JI-38, superfused rat pituitary cells [4] [fold vs JI-38] | IC50 [5] [nM] | relative affinity (binding potency) vs JI-38 [5] [vs JI-38=1] | relative affinity (binding potency) compared to JI-38 [6] [vs JI-38=1] | relative affinity (binding potency) compared to hGHRH(1-29) [6] | fold enhancement of receptor binding affinity vs JI-38 [3] [fold vs JI-38] | IC50 [6] [nM] | IC50 [7] [nM] | relative affinity (binding potency) vs GHRH [7] | relative affinity (binding potency) vs JI-38 [7] [vs JI-38=1]
1 | JI-34 (peptide) | 4.32 | – | – | – | – | – | – | – | – | – | – | – | – | – | –
2 | JI-36 (peptide) | 3.25 | – | – | – | – | – | – | – | – | – | – | – | – | – | –
3 | [Desaminotyrosyl]ADAIFTQSYR[Orn]VL[Abu]QLSAR[Orn]LLQDI[Nle]D[Agmatine] (SMILES CCCC[C@H](NC(=O)[C@@H](NC(=O)[C@H](CC(=O)O)NC(=O)[C@H](CCC(N)=O)NC(=O)[C@H](CC(C)C)NC(=O)[C@H](CC(C)C)NC(=O)[C@H](CCCN)NC(=O)[C@H](CCCNC(=N)N)NC(=O)[C@H](C)NC(=O)[C@H](CO)NC(=O)[C@H](CC(C)C)NC(=O)[C@H](CCC(N)=O)NC(=O)[C@H](CC)NC(=O)[C@H](CC(C)C)NC(=O)[C@@H](NC(=O)[C@H](CCCN)NC(=O)[C@H](CCCNC(=N)N)NC(=O)[C@H](Cc1ccc(O)cc1)NC(=O)[C@H](CO)NC(=O)[C@H](CCC(N)=O)NC(=O)[C@@H](NC(=O)[C@H](Cc1ccccc1)NC(=O)[C@@H](NC(=O)[C@H](C)NC(=O)[C@H](CC(=O)O)NC(=O)[C@H](C)NC(=O)CCc1ccc(O)cc1)[C@@H](C)CC)[C@@H](C)O)C(C)C)[C@@H](C)CC)C(=O)N[C@@H](CC(=O)O)C(=O)NCCCCNC(=N)N) [JI-38 [Dat^1, Gln^8, Orn^12,21, Abu^15, Nle^27, Asp^28, Agm^29]hGHRH(1-29)NH2] | – | 1.71 | 2.4 vs GHRH(1-29)=1 | 1 | – | – | 4.35 | 1 | 1 | 2.79 vs hGHRH(1-29)NH2=1 | – | 2.74 | 1.95 | 3.03 vs GHRH(1-29)=1 | 1

Continued, values first:

Row | relative affinity (binding potency) vs GHRH (vs GHRH(1-29)=1) [1] | IC50 [2] [nM] | relative affinity (binding potency) vs GHRH [2] | relative affinity (binding potency) vs JI-38 [2] [vs JI-38=1] | fold increase in GHRH receptor binding affinity vs JI-38 [3] [fold vs JI-38] | GH-releasing potency in vitro relative to JI-38, superfused rat pituitary cells [4] [fold vs JI-38] | IC50 [5] [nM] | relative affinity (binding potency) vs JI-38 [5] [vs JI-38=1] | relative affinity (binding potency) compared to JI-38 [6] [vs JI-38=1] | relative affinity (binding potency) compared to hGHRH(1-29) [6] | fold enhancement of receptor binding affinity vs JI-38 [3] [fold vs JI-38] | IC50 [6] [nM] | IC50 [7] [nM] | relative affinity (binding potency) vs GHRH [7] | relative affinity (binding potency) vs JI-38 [7] [vs JI-38=1] | Molecule
4 | – | 0.01 | 406 vs GHRH(1-29)=1 | 171 | 2.7 | ~3 | 0.27 | 16.1 | 2.69 | 7.5 vs hGHRH(1-29)NH2=1 | – | – | – | – | – | [NMeY]ADAIFTQSYR[Orn]VL[Abu]QLSAR[Orn]LLQDI[Nle]D[Agmatine] [P-20356 [N-Me-Tyr^1, Gln^8, Orn^12, Abu^15, Orn^21, Nle^27, Asp^28, Agm^29]hGHRH(1-29)NH2]
5 | – | – | – | – | – | – | 0.16 | 27.2 | 3.69 | 10.3 vs hGHRH(1-29)NH2=1 | ~3.7 | 0.74 | – | – | – | [NMeY][dA]DAIFTQSYR[Orn]VL[Abu]QLSAR[Orn]LLQDI[Nle]DR-NHMe [P-27403 [N-Me-Tyr^1, D-Ala^2, Gln^8, Orn^12, Abu^15, Orn^21, Nle^27, Asp^28]hGHRH(1-29)NH-CH3]
